One substance from article PMC7015924 can be followed below.

The series concerns His-SUMO-Piwi PAZ domain (Drosophila melanogaster). Nature of the series: ITC. The settings on record: 2'-O-methyl at 3' end; ITC buffer not in material (PAZ purified in 10 mM Tris-HCl pH 8.0, 500 mM NaCl); cleavage assays 27 C, 17 h (bead/supernatant assay conditions not given) ….

8-mer RNA with 3' 2'-O-methyl gave a Kd of 4 µM.

In general, Kd refers to a measure of binding affinity in units of concentration. Read a high Kd as a looser complex.
